Laboratory results from PMC6590870.
Values joined by “and” are separate entries in the source; they are usually repeats but may differ in a detail not shown here. Identical values can stand only once.

Biological target: Strep-HP1542 (bactofilin HP1542 of H. pylori reference strain 26695, N-terminal Strep-tagged version) (Helicobacter pylori strain 26695)
Assay: cross-linking; glutaraldehyde dilutions 10% to 0.01% added to strep-tagged protein, 10 min at 23°C; SDS-PAGE and immunoblotting

Strep-HP1542 (bactofilin HP1542 of H. pylori reference strain 26695, N-terminal Strep-tagged version) (natural protein)
stoichiometry N: 2 and 3
